Reference: patent publication US7041463B2, “Orthologues of human receptors and methods of use” (Pharmacopeia Drug Discovery, Inc., priority 2000, dated 2006)

What was measured:
tree shrew B1 receptor = assay: [3H]-des-Arg10-kallidin binding, 293E membranes, tree shrew B1; design: species or system tree shrew (Tupaia minor); conditions: read-out: average dissociation constant (KD)
Method: (§1) Membrane preparations for use in accordance with the methods of the present invention were generated as follows. 293E cells expressing B1 receptors were harvested and pelleted. Cells were washed once with PBS and once with a membrane buffer (for example, 10 mM HEPES pH 7.5, 1 μM phosphoramidon, 3 μM amastatin, 1 μM captopril, 2 μM dithiothreitol (DTT)). Cells were resuspended in membrane buffer and Dounce homogenized on ice 35 times. The membranes were collected by centrifugation at 15,000×g for 30 min. at 4° C. and resuspended in membrane buffer containing 0.2% bovine serum albumin (BSA) at a final concentration of approximately 5×10^7 cell equivalents per ml. Aliquots were flash frozen and stored at −80° C. Frozen aliquots were subsequently thawed, diluted, and sonicated on ice using a Branson Sonifier® 250 (4×5 sec, 40% output).
(§2) Prior to use in a binding assay, a membrane preparation is “calibrated” as described below to determine the amount of membrane preparation to be used. […]
(§3) The method of the present invention employs a binding assay such as the one described below. […] 50 μl of scintillation fluid was added to each well and plates were counted in a Wallac Microbeta® TriLux for 10 min. per well.

[1] = biological target: B1 receptors (species homologues); assay: [3H]-des-Arg10-kallidin binding across all cloned B1 orthologues; conditions: 0.6 nM or 1.5 nM (rat) [3H]-dAKd
Method: as §1, §2, §3

CXCR2 receptor = assay: CXCR2 radioligand binding, 293E membranes, monkey/primate receptors; conditions: recombinant CXCR2 from six primate species
Method: Membrane preparations for use in accordance with the methods of the present invention were generated as follows. 293E cell monolayers expressing CXCR2 receptors were washed twice with PBS and 5 ml of ice cold homogenizing buffer (for example, 10 mM HEPES pH 8.0, 10 mM EDTA). Cells were resuspended in membrane buffer and Dounce homogenized on ice 35 times. The membranes were collected by centrifugation at 15,000×g for 30 min. at 4° C. and resuspended in membrane storage buffer (10 mM Tris-HCl pH8.0, 1.2 mM MgSO4, 0.1 mM EDTA, 25 mM NaCl, 1 unit/ml bacitracin) at a final concentration of approximately 5×10^7 cell equivalents per ml. Aliquots were flash frozen and stored at −80° C. Frozen aliquots were subsequently thawed, diluted, and sonicated on ice using a Branson Sonifier® 250 (4×5 sec, 40% output).
Prior to use in a binding assay, a membrane preparation is “calibrated” as described below to determine the amount of membrane preparation to be used. A frozen sample of a membrane preparation is thawed and the preparation diluted in assay buffer to obtain several different concentrations of membranes, for example, 1:5, 1:10, 1:20, 1:40 and so on. The diluted membrane preparation is sonicated in a bath style sonicator for 5 minutes at room temperature. Each dilution is plated in a 96-well plate, for example, with quintuplicate samples for binding of ligand and wells to evaluate non-specific binding in triplicate. The dilutions that yield approximately 200 cpm total counts are chosen for subsequent assays.
For determining binding affinity for the orthologous CXCR2 receptors, described herein, the method of the present invention employs a binding assay such as the one described below. A suitable binding assay buffer for receptor binding consists of 10 mM Tris pH 8.0, 0.1 mM EDTA, 1.2 mM MgSO4, 25 mM NaCl and 0.03% CHAPS (Sigma, St. Louis, Mo.). […] 50 μl of scintillation fluid was added to each well and plates were counted in a Wallac Microbeta® TriLux for 1 min. per well.

[2] = biological target: canine/human chimeric bradykinin B1 receptor (UniProt Q9BDQ5); assay: radioligand competition binding
[3] = biological target: human bradykinin B1 receptor (human) (UniProt P46663); assay: radioligand competition binding
[4] = biological target: pig bradykinin B1 receptor (UniProt Q8HZN9); assay: radioligand competition binding
[5] = biological target: rabbit bradykinin B1 receptor (rabbit) (UniProt P48748); assay: radioligand competition binding
[6] = biological target: rhesus macaque bradykinin B1 receptor (UniProt Q8HZP2); assay: radioligand competition binding
[7] = biological target: tree shrew bradykinin B1 receptor (UniProt Q8HZP1); assay: radioligand competition binding
dog B1 = biological target: T1, dog B1 (Canis lupus familiaris, UniProt Q9BDQ5, D322E/F324Y/R319K); assay: [3H]-des-Arg10-kallidin binding, 293E membranes, dog B1 (canine/human chimera); conditions: 0.6 nM [3H]-dAKd
T1 construct: the chimeric canine/human receptor described above was used in the experiments described below; C-terminal cytoplasmic tail of human bradykinin B1 receptor (fusion partner of the chimera); expressed in transfected cells; host or cells: 293-EBNA (293E) cells, membranes
T1 sequence (Q9BDQ5 with tags, fused parts or gaps R319K/D322E/F324Y): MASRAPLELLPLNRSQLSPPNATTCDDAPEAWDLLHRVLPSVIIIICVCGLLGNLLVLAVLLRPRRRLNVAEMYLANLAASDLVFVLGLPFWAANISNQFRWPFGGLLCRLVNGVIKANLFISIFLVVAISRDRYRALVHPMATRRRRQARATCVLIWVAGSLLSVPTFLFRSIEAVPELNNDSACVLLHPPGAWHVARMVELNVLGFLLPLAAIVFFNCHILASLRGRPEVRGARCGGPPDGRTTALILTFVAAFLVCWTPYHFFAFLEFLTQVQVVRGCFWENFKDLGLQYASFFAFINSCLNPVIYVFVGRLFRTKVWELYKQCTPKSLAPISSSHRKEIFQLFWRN
Excerpt: Additionally, a canine/human chimeric bradykinin B1 receptor comprising amino acids 1 to 320 of the canine sequence and amino acids 319–353 of human bradykinin B1 receptor was generated. Any number of chimeric molecules, for example, a chimera comprising amino acids 1–315 of the canine sequence and amino acids 314–353 of the human sequence can be used.
as §1, with “Frozen aliquots were subsequently thawed, diluted, and sonicated on ice using a Branson Sonifier® 250 (4×5 sec, 40% output).” left out
as §3

[8] = biological target: canine/human chimeric bradykinin B1 receptor (UniProt Q9BDQ5); assay: radioligand saturation binding; legend: [3H]-des-Arg10-kallidin
[9] = biological target: human bradykinin B1 receptor (human) (UniProt P46663); assay: as above
[10] = biological target: pig bradykinin B1 receptor (UniProt Q8HZN9); assay: as above
[11] = biological target: rabbit bradykinin B1 receptor (rabbit) (UniProt P48748); assay: as above
[12] = biological target: rhesus macaque bradykinin B1 receptor (UniProt Q8HZP2); assay: as above
[13] = biological target: tree shrew bradykinin B1 receptor (UniProt Q8HZP1); assay: as above

tree shrew bradykinin B1 receptor, sequence (Q8HZP1 whole entry): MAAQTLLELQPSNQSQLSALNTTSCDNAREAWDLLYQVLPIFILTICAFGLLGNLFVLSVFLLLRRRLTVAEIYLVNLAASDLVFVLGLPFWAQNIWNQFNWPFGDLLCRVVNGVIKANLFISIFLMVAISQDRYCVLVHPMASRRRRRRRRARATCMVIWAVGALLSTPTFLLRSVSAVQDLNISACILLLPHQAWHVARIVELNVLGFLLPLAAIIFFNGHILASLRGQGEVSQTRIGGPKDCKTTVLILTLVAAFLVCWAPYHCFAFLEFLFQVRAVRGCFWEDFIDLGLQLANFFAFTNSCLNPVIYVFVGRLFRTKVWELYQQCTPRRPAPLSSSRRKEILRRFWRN
pig bradykinin B1 receptor, sequence (Q8HZN9 whole entry): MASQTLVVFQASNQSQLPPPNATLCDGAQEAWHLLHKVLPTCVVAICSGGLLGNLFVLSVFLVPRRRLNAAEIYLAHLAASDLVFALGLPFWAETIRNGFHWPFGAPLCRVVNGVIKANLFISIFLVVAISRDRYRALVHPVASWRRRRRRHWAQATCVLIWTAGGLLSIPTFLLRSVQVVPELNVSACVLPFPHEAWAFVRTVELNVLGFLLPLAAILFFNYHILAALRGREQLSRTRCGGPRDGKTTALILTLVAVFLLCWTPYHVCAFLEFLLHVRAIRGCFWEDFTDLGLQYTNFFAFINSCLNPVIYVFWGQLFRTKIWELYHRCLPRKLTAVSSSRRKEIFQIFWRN
rabbit bradykinin B1 receptor (rabbit), sequence (P48748 whole entry): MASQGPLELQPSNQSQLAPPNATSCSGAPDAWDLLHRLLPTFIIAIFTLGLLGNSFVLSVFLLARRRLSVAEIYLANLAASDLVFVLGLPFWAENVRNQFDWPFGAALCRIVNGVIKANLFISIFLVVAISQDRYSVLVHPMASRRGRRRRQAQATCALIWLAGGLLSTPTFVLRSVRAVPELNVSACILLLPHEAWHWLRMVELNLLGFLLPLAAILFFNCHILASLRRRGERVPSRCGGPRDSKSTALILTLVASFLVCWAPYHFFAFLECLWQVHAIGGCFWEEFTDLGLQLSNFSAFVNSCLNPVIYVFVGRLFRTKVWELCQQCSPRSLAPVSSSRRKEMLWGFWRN
[des-Arg^10] [Leu^9]kallidin, sequence (P01042 whole entry, looked up): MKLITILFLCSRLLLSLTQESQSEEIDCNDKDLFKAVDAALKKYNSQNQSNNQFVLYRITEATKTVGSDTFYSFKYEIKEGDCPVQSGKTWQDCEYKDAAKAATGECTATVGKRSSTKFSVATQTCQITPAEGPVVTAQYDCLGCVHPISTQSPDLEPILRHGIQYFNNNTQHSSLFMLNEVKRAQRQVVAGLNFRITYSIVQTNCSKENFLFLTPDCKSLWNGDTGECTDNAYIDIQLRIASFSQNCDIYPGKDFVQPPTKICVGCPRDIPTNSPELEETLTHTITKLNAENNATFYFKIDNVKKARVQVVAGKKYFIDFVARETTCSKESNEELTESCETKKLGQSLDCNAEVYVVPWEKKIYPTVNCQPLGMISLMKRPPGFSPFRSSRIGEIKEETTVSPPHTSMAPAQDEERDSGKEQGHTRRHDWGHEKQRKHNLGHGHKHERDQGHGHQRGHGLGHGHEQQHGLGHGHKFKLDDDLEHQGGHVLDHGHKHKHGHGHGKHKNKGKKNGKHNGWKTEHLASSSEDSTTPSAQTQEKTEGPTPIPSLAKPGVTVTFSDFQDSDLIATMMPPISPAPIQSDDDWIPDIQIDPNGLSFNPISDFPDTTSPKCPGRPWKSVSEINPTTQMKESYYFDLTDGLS
des-Arg^10-kallidin, sequence (P01042 whole entry, looked up): as above

**Q.** For `N=C(N)NCCC[C@H](NC(=O)[C@@H](N)CCCCN)C(=O)N1CCC[C@H]1C(=O)N1CCC[C@H]1C(=O)NCC(=O)N[C@@H](Cc1ccccc1)C(=O)N[C@@H](CO)C(=O)N1CCC[C@H]1C(=O)N[C@@H](Cc1ccccc1)C(=O)O` [dAKd, des-Arg^10-Kallidin], which Kd (tree shrew B1 receptor) is on record?
**A.** 4.2 nM

**Q.** And the “affinity (K1) at all B1 species homologues, in words” value [1]?
**A.** approximately equipotent

**Q.** And the “affinity (K1) at all B1 species homologues, in words” value ([1]; listed as dAKD)?
**A.** strong affinity

**Q.** For “ENA-78: ligand bound by the encoded CXCR2 receptors”, which “binding to the encoded receptors, in words” value (from here on “binding”) (CXCR2 receptor) is on record?
**A.** capable of binding

**Q.** Which “binding” value (CXCR2 receptor) does the source give for “Gro-alpha: ligand bound by the encoded CXCR2 receptors” here?
**A.** capable of binding

**Q.** For “[des-Arg^10] [Leu^9]kallidin (from UniProt P01042 380-388)”, which Ki [2] is on record?
**A.** 120 nM

**Q.** And the Ki [3]?
**A.** 4.6 nM

**Q.** What about the Ki [4] of the same molecule?
**A.** 9.5 nM

**Q.** What about the Ki [5] of the same molecule?
**A.** 9.3 nM

**Q.** And the Ki [6]?
**A.** 9.5 nM

**Q.** And the Ki [7]?
**A.** 22 nM

**Q.** For [des-Arg^10] [Leu^9]kallidin [dALKd], which “affinity (K1) at dog B1, in words” value (dog B1) is on record?
**A.** more than an order of magnitude weaker

**Q.** With “des-Arg^10-kallidin (from UniProt P01042 380-388)” as the molecule, how does the Ki [2] read?
**A.** 4.2 nM

**Q.** What about the Ki [3] of the same molecule?
**A.** 1.5 nM

**Q.** What about the Ki [4] of the same molecule?
**A.** 2.3 nM

**Q.** What about the Ki [5] of the same molecule?
**A.** 3.4 nM

**Q.** What about the Ki [6] of the same molecule?
**A.** 3.3 nM

**Q.** What about the Ki [7] of the same molecule?
**A.** 6.1 nM

**Q.** And the Kd [8]?
**A.** 3.3 ?

**Q.** And the Kd [9]?
**A.** 0.6 ?

**Q.** And the Kd [10]?
**A.** 1.9 ?

**Q.** And the Kd [11]?
**A.** 1.3 ?

**Q.** What about the Kd [12] of the same molecule?
**A.** 2.8 ?

**Q.** What about the Kd [13] of the same molecule?
**A.** 4.2 ?

**Q.** With interleukin 8: native ligand of CXCR2 as the molecule, how does the “binding” value (CXCR2 receptor) read?
**A.** capable of binding
